# Laboratory results reported in patent US20140087995A1 (published 2014).
# Numbered stars: 1 amine (or outer) side, 2 acyl side, 3 side chain; on linkers, the order of the positions; unused ones are H or OH. Bridge positions count the residues as written; N and C are the ends. Ends that are not written are not given here. * marks the point of attachment. C20 diacid = O=C(O)CCCCCCCCCCCCCCCCCCC(=O)*; γGlu = O=C(O)[C@H](CCC(=O)[*:2])N[*:1]
# T1: human amylin receptor (amylin 3(a) receptor: human calcitonin receptor plus RAMP-3) (human, UniProt P30988 25-474; O60896 24-148)
# T1 sequence (looked up) 1: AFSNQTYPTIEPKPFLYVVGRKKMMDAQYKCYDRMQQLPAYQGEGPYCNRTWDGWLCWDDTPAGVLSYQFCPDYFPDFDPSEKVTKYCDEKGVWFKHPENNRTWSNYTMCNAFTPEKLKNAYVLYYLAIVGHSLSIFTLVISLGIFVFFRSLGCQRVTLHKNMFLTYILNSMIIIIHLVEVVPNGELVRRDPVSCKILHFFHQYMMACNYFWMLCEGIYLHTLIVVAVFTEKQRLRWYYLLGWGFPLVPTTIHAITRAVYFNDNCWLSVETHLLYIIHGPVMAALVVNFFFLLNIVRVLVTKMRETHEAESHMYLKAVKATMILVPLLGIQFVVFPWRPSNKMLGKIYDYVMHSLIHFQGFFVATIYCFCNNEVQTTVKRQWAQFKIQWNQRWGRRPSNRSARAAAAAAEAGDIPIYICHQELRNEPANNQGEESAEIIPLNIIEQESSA
# T1 sequence (looked up) 2: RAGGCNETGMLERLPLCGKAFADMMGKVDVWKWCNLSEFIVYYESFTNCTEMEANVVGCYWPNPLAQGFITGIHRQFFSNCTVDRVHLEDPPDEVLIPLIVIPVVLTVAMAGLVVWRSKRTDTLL
# T2: human calcitonin receptor (human, UniProt P30988 25-474)
# T2 sequence (looked up): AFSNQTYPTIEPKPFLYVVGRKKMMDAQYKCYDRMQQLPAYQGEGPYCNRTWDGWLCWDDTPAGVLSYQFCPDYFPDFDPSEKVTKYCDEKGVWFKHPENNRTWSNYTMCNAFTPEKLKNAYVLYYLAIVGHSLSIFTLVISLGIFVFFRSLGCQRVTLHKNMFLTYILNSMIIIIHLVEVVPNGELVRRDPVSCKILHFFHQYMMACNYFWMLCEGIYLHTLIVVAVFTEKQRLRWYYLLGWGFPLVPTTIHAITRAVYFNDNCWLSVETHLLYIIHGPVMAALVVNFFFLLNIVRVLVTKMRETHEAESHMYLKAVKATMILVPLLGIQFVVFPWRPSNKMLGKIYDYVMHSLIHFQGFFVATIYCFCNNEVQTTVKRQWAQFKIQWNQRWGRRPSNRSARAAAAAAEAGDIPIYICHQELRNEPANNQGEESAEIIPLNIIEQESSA
# T3: rat calcitonin receptor (rat, UniProt P32214 25-516)
# T3 construct: whole, on cells; In cell membranes prepared from transiently transfected BHK tk'ts 13 cells (Assay VIII); also called rCTR; rat calcitonin (a) receptor
# T3 sequence (looked up): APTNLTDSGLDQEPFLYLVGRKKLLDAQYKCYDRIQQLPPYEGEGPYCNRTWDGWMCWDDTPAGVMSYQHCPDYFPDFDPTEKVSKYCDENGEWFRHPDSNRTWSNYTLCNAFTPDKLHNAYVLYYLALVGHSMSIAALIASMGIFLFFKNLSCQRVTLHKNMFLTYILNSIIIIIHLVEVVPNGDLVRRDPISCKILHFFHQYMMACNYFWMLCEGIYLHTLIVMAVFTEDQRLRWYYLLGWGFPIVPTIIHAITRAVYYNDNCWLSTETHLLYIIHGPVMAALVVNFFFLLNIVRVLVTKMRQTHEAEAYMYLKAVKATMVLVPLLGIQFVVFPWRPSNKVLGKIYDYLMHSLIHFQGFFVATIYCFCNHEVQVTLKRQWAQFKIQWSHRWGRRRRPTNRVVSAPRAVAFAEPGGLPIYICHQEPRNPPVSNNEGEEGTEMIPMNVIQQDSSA
# Legend:
# [1] = biological target: T1, human amylin receptor (amylin 3(a) …); test: cell-based or functional assay
# [2] = biological target: T2, human calcitonin receptor; test: cell-based or functional assay
# [3] = biological target: T1, human amylin receptor (amylin 3(a) …); test: SPA competition, displacement of 125I-rat amylin from membranes of BHK cells with human calcitonin receptor + RAMP-3 (Assay V)
# Protocol: The binding assay was performed using scintillation proximity assay (SPA) beads (RPNQ0001) from PerkinElmer and cell membranes from the Amylin 3(a)/CRE-luc cells (as described in Assay (II)) were used. Membranes were prepared in the following way; the cells were rinsed with PBS and incubated with Versene for approximately 5 min before harvesting. The cells were flushed with PBS and the cell-suspension was centrifuged for 5 min at 1000 rpm. Cells were homogenized (ultrathurrax) in a buffer containing 20 mM Na-HEPES and 10 mM EDTA (pH 7.4) and centrifuged at 20.000 rpm for 15 min. The resulting pellet was resuspended, homogenized and centrifuged (20.000 rpm, 15 min) in a buffer containing 20 mM Na-HEPES and 0.1 mM EDTA (pH 7.4, buffer 2). The resulting pellet was resuspended in buffer 2 and protein concentration was measured (BCA protein Assay, Pierce). The homogenate was kept cold during the whole procedure. The membranes were kept at −80° C. until use. The assay was performed in a 384 well Optiplate (PerkinElmer) in a total volume of 40 ul. Membranes were mixed with SPA beads. Final concentration of membranes 35 ng/μL final and SPA beads was 0.05 mg/well. Test-compounds were dissolved in DMSO and further diluted in assay buffer (50 mM Hepes, pH 7.4, 1 mM CaCl2, 5 mM MgCl₂, 0.1% OA and 0.02% Tween20). […] The final mixture was incubated with shaking at 400 rpm for 120 min at 25° C. prior to centrifugation (1500 rpm, 10 min). Samples were analyzed on TopCounter™ (Packard). The IC₅₀ was calculated using (one site binding competition analysis) GraphPad Prism5 as a measure of receptor affinity.
# rat calcitonin receptor = biological target: T3, rat calcitonin receptor; test: SPA competition binding, displacement of 125I-Calcitonin from membranes of BHK tk'ts 13 cells with rat calcitonin receptor (Assay VIII)
Binder,Ratio hCT/hAmylin funct. [1],hAmylin-R funct. EC50 (pM) [1] [pM],hCTR funct. EC50 (pM) [2] [pM],IC50 [3] [nM],IC50 (rat calcitonin receptor) [nM]
"{C20 diacid-γGlu}-KCNTATCATQRLAEFLRHSSPNFGAIPSSTNVGSHTY-NH2 (disulfide 2-7; SMILES CC[C@H](C)[C@H](NC(=O)[C@H](C)NC(=O)CNC(=O)[C@H](Cc1ccccc1)NC(=O)[C@H](CC(N)=O)NC(=O)[C@@H]1CCCN1C(=O)[C@H](CO)NC(=O)[C@H](CO)NC(=O)[C@H](Cc1c[nH]cn1)NC(=O)[C@H](CCCNC(=N)N)NC(=O)[C@H](CC(C)C)NC(=O)[C@H](Cc1ccccc1)NC(=O)[C@H](CCC(=O)O)NC(=O)[C@H](C)NC(=O)[C@H](CC(C)C)NC(=O)[C@H](CCCNC(=N)N)NC(=O)[C@H](CCC(N)=O)NC(=O)[C@@H](NC(=O)[C@H](C)NC(=O)[C@@H]1CSSC[C@H](NC(=O)[C@H](CCCCN)NC(=O)CC[C@H](NC(=O)CCCCCCCCCCCCCCCCCCC(=O)O)C(=O)O)C(=O)N[C@@H](CC(N)=O)C(=O)N[C@@H]([C@@H](C)O)C(=O)N[C@@H](C)C(=O)N[C@@H]([C@@H](C)O)C(=O)N1)[C@@H](C)O)C(=O)N1CCC[C@H]1C(=O)N[C@@H](CO)C(=O)N[C@@H](CO)C(=O)N[C@H](C(=O)N[C@@H](CC(N)=O)C(=O)N[C@H](C(=O)NCC(=O)N[C@@H](CO)C(=O)N[C@@H](Cc1c[nH]cn1)C(=O)N[C@H](C(=O)N[C@@H](Cc1ccc(O)cc1)C(N)=O)[C@@H](C)O)C(C)C)[C@@H](C)O, also called compound 18)",4.8,154,742,0.554,
"{C20 diacid-γGlu}-GRCNTATCATQRLANFLRHSSPNFGAIPSSTNVGSHTY-NH2 (disulfide 3-8; SMILES CC[C@H](C)[C@H](NC(=O)[C@H](C)NC(=O)CNC(=O)[C@H](Cc1ccccc1)NC(=O)[C@H](CC(N)=O)NC(=O)[C@@H]1CCCN1C(=O)[C@H](CO)NC(=O)[C@H](CO)NC(=O)[C@H](Cc1c[nH]cn1)NC(=O)[C@H](CCCNC(=N)N)NC(=O)[C@H](CC(C)C)NC(=O)[C@H](Cc1ccccc1)NC(=O)[C@H](CC(N)=O)NC(=O)[C@H](C)NC(=O)[C@H](CC(C)C)NC(=O)[C@H](CCCNC(=N)N)NC(=O)[C@H](CCC(N)=O)NC(=O)[C@@H](NC(=O)[C@H](C)NC(=O)[C@@H]1CSSC[C@H](NC(=O)[C@H](CCCNC(=N)N)NC(=O)CNC(=O)CC[C@H](NC(=O)CCCCCCCCCCCCCCCCCCC(=O)O)C(=O)O)C(=O)N[C@@H](CC(N)=O)C(=O)N[C@@H]([C@@H](C)O)C(=O)N[C@@H](C)C(=O)N[C@@H]([C@@H](C)O)C(=O)N1)[C@@H](C)O)C(=O)N1CCC[C@H]1C(=O)N[C@@H](CO)C(=O)N[C@@H](CO)C(=O)N[C@H](C(=O)N[C@@H](CC(N)=O)C(=O)N[C@H](C(=O)NCC(=O)N[C@@H](CO)C(=O)N[C@@H](Cc1c[nH]cn1)C(=O)N[C@H](C(=O)N[C@@H](Cc1ccc(O)cc1)C(N)=O)[C@@H](C)O)C(C)C)[C@@H](C)O, N-terminal extension by Gly at position -1; also called compound 47)",6,222,1320,0.344,
"KCNTATCATQRLADFLRHSSPNFGAIPSSTNVGSRTY-NH2 (disulfide 2-7) [[Asp14,Arg17,Pro21,Pro27,Arg35]-h-amylin]",,,,,30.9
